pKd: −log10 of the molar value.
Columns and labels:
[1] = molecular target: Centruroides sculpturatus whole venom (toxic components CsEM1a and CsEd, ~10% of the venom); test: cell-based or functional assay
[2] = molecular target: CsEM1a toxin from Centruroides sculpturatus venom (Centruroides sculpturatus); test: SPR (Biacore X), toxin on CM5 chip, scFv injected, 25 C, Langmuir 1:1
[3] = molecular target: CsEd toxin from Centruroides sculpturatus venom (Centruroides sculpturatus); test: as above

CsEM1a toxin from Centruroides sculpturatus venom (Centruroides sculpturatus), sequence (P56646 whole entry): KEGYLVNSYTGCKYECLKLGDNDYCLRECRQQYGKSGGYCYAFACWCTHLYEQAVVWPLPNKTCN
scFv 10FG2 (SEQ. ID. NO: 1), sequence (scFv): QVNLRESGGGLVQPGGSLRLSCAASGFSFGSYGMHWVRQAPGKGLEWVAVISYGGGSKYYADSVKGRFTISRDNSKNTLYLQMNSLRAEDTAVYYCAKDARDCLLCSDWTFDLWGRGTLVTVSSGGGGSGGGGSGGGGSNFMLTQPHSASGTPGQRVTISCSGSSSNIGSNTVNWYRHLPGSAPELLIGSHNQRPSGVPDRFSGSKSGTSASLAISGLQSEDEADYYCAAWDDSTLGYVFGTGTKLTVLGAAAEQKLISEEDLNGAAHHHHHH

scFv 10FG2 (SEQ. ID. NO: 1)
Survivors/Total, mixing test, 2 LD50, molar ratio toxin:scFv 1:5 (survivors of 6 mice) [1]: 6
Survivors/Total, mixing test, 3 LD50, molar ratio toxin:scFv 1:3.3 (survivors of 6 mice) [1]: 6
Survivors/Total, mixing test, 4 LD50, molar ratio toxin:scFv 1:2.5 (survivors of 6 mice) [1]: 6
Survivors/Total, mixing test, 5 LD50, molar ratio toxin:scFv 1:2 (survivors of 6 mice) [1]: 6
Survivors/total, mice injected with venom premixed with scFv, 2 LD50, molar ratio toxin:scFv 1:10 (survivors of 6 mice) [1]: 6
pKd [2]: 8.96
TR (min), residence time [2]: 63 min
koff [2]: 0.000261 s⁻¹
kon [2]: 237000 M⁻¹ s⁻¹
pKd [3]: 8.74
TR (min), residence time [3]: 49 min
koff [3]: 0.00034 s⁻¹
kon [3]: 185000 M⁻¹ s⁻¹

Reference: patent US20240092879A1
